Reference: publication PMC8516096

Experiments:
Conditions in all cases: Holoenzyme reconstitution: 200 mM Tris-HCl pH 8.0, 30 mM KCl, 10 mM MgCl2, 50 mM NaCl, 1 mM DTT, 1 mM EDTA, BSA 20 ug/ml, 30 C 45 min; DNA binding: 50 mM …
[1] = target: T1, RNAP core enzyme (E, alpha2 beta beta' omega);RpoS (sigmaS, sigma38);Crl (Escherichia coli;Salmonella enterica serovar Typhimurium ATCC 14028?;Salmonella enterica serovar Typhimurium ATCC 14028?) (UniProt P0A7Z4+P0A8V2+P0A8T7+P0A800+D0ZVL4+Q7CR52); experiment: EMSA with anti-RpoS immunoblot
[2] = target: T2, RNAP core enzyme (E, alpha2 beta beta' omega);RpoS (sigmaS, sigma38) (Escherichia coli;Salmonella enterica serovar Typhimurium ATCC 14028?) (UniProt P0A7Z4+P0A8V2+P0A8T7+P0A800+D0ZVL4); experiment: EMSA with anti-RpoS immunoblot
[3] = target: T1, RNAP core enzyme (E, alpha2 beta beta' omega);RpoS (sigmaS, sigma38);Crl (Escherichia coli;Salmonella enterica serovar Typhimurium ATCC 14028?;Salmonella enterica serovar Typhimurium ATCC 14028?); experiment: competition EMSA with anti-RpoS immunoblot
[4] = target: RNAP core enzyme (E, alpha2 beta beta' omega);RpoD (sigmaD, sigma70) (Escherichia coli;Salmonella enterica serovar Typhimurium ATCC 14028?) (UniProt P0A7Z4+P0A8V2+P0A8T7+P0A800+P0A2E3); experiment: EMSA
[5] = target: RNAP core enzyme (E, alpha2 beta beta' omega) (Escherichia coli) (UniProt P0A7Z4+P0A8V2+P0A8T7+P0A800); experiment: EMSA
[6] = target: T2, RNAP core enzyme (E, alpha2 beta beta' omega);RpoS (sigmaS, sigma38) (Escherichia coli;Salmonella enterica serovar Typhimurium ATCC 14028?); experiment: EMSA

Measured: binding

AGTACATATAGTTTCATCAGAAGATTAATCGATGGTGTTATCATTAGGAAGATAAATTTCTTCATATATAACCCAGTCGATGACTACAATTACTTTTTAATAAGATGGCGATGTAAAAACATCGTAACAGTTTATTTAATAAATAATTTTTCAAATTGTAAGTTTTTATGTC (double strand) [PssrA region]
binds: all assays above
